Laboratory results published in PMC11551737, “Structural and functional insights into the interaction between the bacteriophage T4 DNA processing proteins gp32 and Dda” (Nucleic Acids Research, 2024).

Test system: wild-type Dda
Assay: Dda-dependent DNA unwinding assay with gp32 variants (fluorescein-quenched replication fork substrate, no annealing trap)
Format: biochemical, bacteriophage T4
Conditions: 375 nM gp32 variant, 25 nM wild-type Dda, 25 nM substrate, 2.5 mM ATP, triplicate experiments; for Rate constant of product formation (single exponential fit): 5 mM Mg(OAc)2, pH 7.5, room temperature, fluorescein fluorescence; for Amplitude of the product formation curve (fluorescence): higher amplitude = more effective prevention of reannealing
Protocol: A partial duplex substrate mimicking a replication fork was prepared by mixing equimolar concentrations of the following oligonucleotides: loading strand - […]/36-FAM/, displaced strand - […], and leading strand - […] in 10 mM HEPES/1 mM EDTA. The sample was heated to 95°C for 5 min, followed by slowly cooling to room temperature. All concentrations are final, after mixing. ATP (2.5 mM), Mg(OAc)2 (5 mM) and gp32 (375 nM) in assay buffer (25 mM HEPES, pH 7.5, 10 mM KOAc, 0.1 mM EDTA, 2 mM β-mercaptoethanol, 1 mg/ml bovine serum albumin and 4 mM phosphoenol pyruvate) were mixed and added to wells in one row of a black 96-well plate. The reactions were initiated by adding 25 nM substrate, 25 nM wild-type Dda and 5 U/ml pyruvate kinase/lactate dehydrogenase in assay buffer with a multichannel pipette to the entire row simultaneously. Fluorescein fluorescence was measured 8 times per minute in a VICTOR Nivo Multimode Plate Reader (Perkin Elmer) at room temperature with excitation through a 480/30 nm bandpass filter and emission measured after a 530/30 nm bandpass filter.

Molecule	Rate constant of product formation (single exponential fit) [s⁻¹]	Amplitude of the product formation curve (fluorescence)
gp32 A255E/L262A: full-length gp32 variant A255E/L262A designed to reduce gp32–Dda interactions (protein, left off: 6xHis, N-terminal, state not stated) MFKRKSTAELAAQMAKLNGNKGFSSEDKGEWKLKLDNAGNGQAVIRFLPSKNDEQAPFAILVNHGFKKNGKWYIETCSSTHGDYDSCPVCQYISKNDLYNTDNKEYSLVKRKTSYWANILVVKDPAAPENEGKVFKYRFGKKIWDKINAMIAVDVEMGETPVDVTCPWEGANFVLKVKQVSGFSNYDESKFLNQSAIPNIDDESFQKELFEQMVDLSEMTSKDKFKSFEELNTKFGQVMGTAVMGGAAATAAKKEDKVADDADAFNVDDFNTKTEDDFMSSSSGSSSSADDTDLDDLLNDL	0.023	130 000
gp32 V258E/F265A: full-length gp32 variant V258E/F265A designed to reduce gp32–Dda interactions (protein, left off: 6xHis, N-terminal, state not stated) MFKRKSTAELAAQMAKLNGNKGFSSEDKGEWKLKLDNAGNGQAVIRFLPSKNDEQAPFAILVNHGFKKNGKWYIETCSSTHGDYDSCPVCQYISKNDLYNTDNKEYSLVKRKTSYWANILVVKDPAAPENEGKVFKYRFGKKIWDKINAMIAVDVEMGETPVDVTCPWEGANFVLKVKQVSGFSNYDESKFLNQSAIPNIDDESFQKELFEQMVDLSEMTSKDKFKSFEELNTKFGQVMGTAVMGGAAATAAKKADKEADDLDAANVDDFNTKTEDDFMSSSSGSSSSADDTDLDDLLNDL	0.026	87 000
gp32-B: gp32 lacking the N-terminal region (residues 21–301) (protein, left off: 6xHis, N-terminal, state not stated) KGFSSEDKGEWKLKLDNAGNGQAVIRFLPSKNDEQAPFAILVNHGFKKNGKWYIETCSSTHGDYDSCPVCQYISKNDLYNTDNKEYSLVKRKTSYWANILVVKDPAAPENEGKVFKYRFGKKIWDKINAMIAVDVEMGETPVDVTCPWEGANFVLKVKQVSGFSNYDESKFLNQSAIPNIDDESFQKELFEQMVDLSEMTSKDKFKSFEELNTKFGQVMGTAVMGGAAATAAKKADKVADDLDAFNVDDFNTKTEDDFMSSSSGSSSSADDTDLDDLLNDL	0.013	200 000
gp32-A: gp32 lacking the C-terminal region (residues 1–254) (protein, left off: 6xHis, N-terminal, state not stated) MFKRKSTAELAAQMAKLNGNKGFSSEDKGEWKLKLDNAGNGQAVIRFLPSKNDEQAPFAILVNHGFKKNGKWYIETCSSTHGDYDSCPVCQYISKNDLYNTDNKEYSLVKRKTSYWANILVVKDPAAPENEGKVFKYRFGKKIWDKINAMIAVDVEMGETPVDVTCPWEGANFVLKVKQVSGFSNYDESKFLNQSAIPNIDDESFQKELFEQMVDLSEMTSKDKFKSFEELNTKFGQVMGTAVMGGAAATAAKK	0.021	86 000
